Test results published in publication PMC6754363.

Molecular target: Bacillus anthracis ribonucleotide reductase subunit NrdF (Bacillus anthracis) (UniProt Q81TB4)
Experiment: crystal structure

Bacillus anthracis ribonucleotide reductase subunit NrdF (from UniProt Q81TB4 1-322) (enzyme)
stoichiometry N: 2
